Test results published in the supplement of paper PMC10724198.
± gives the standard deviation of the averaged measurements.

Tests used:
[1] = system: Saccharomyces cerevisiae; assay: protein stability index of tFT-peptide fusion (C-terminal peptide) (PSI (0-1 scale)); higher = more stable (slower turnover)
Procedure: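 MPS profiling in S. cerevisiae of the tFT-X12 degron library: putative degron peptides plus stable controls, 12 aa, fused to the C-terminus of a sfGFP-mCherry timer. Cells are FACS-sorted into 8 mCherry/sfGFP bins and deep-sequenced. PSI runs from 0 (unstable) to 1 (stable). Backgrounds are wild type, das1Δ and doa10Δ at 30 °C, and wild type, das1Δ, cdc34-1 and cdc53-1 at 37 °C; 2-3 technical replicates each.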

[2] = system: Saccharomyces cerevisiae; assay: as above; details: genetic background: wild type; temperature: 30 C
[3] = genetic background: cdc34-1, temperature: 37 C
[4] = genetic background: cdc53-1, temperature: 37 C
[5] = genetic background: das1 deletion, temperature: 30 C
[6] = genetic background: das1 deletion, temperature: 37 C
[7] = genetic background: doa10 deletion, temperature: 30 C
[8] = genetic background: wild type, temperature: 30 C
[9] = genetic background: wild type, temperature: 37 C
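Further: PSI is a weighted mean of sequencing reads over stability bins, variants kept only with over 10 reads, mCherry proximal and sfGFP distal, peptide attached via GGGS linker.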

Sequence | protein stability index [1, 3] | protein stability index [1, 4] | protein stability index [1, 5] | protein stability index [1, 6] | protein stability index [1, 7] | protein stability index [1, 8] | protein stability index [1, 9] | protein stability index [2]
SCLVLDYCFSLV | 0.649 ± 0.037 | 0.631 ± 0.012 | 0.419 ± 0.029 | 0.643 ± 0.0034 | 0.446 ± 0.019 | 0.435 ± 0.02 | 0.613 ± 0.0062 | 0.442 ± 0.016
SCYDYVILLQLS | 0.506 ± 0.051 | 0.65547 ± 0.00031 | 0.435 ± 0.04 | 0.619 ± 0.025 | 0.178 ± 0.01 | 0.213 ± 0.042 | 0.393 ± 0.0047 | 0.304 ± 0.026
SFFFTLLICFLF | 0.161 ± 0.017 | 0.107 ± 0.0062 | 0.234 ± 0.0085 | 0.312 ± 0.0082 | 0.26 ± 0.021 | 0.166 ± 0.028 | 0.244 ± 0.018 | 0.253 ± 0.011
SFLLGCCWLVLC | 0.222 ± 0.04 | 0.309 ± 0.0045 | 0.27 ± 0.03 | 0.3934 ± 0.0034 | 0.1353 ± 0.00058 | 0.116 ± 0.0073 | 0.127 ± 0.0028 | 0.155 ± 0.0099
SFLLVWCLLPEI | 0.364 ± 0.056 | 0.479 ± 0.096 | 0.309 ± 0.029 | 0.4729 ± 0.0046 | 0.2695 ± 0.0018 | 0.299 ± 0.035 | 0.451 ± 0.033 | 0.415 ± 0.0064
SFLVFLYFFMVF | 0.3637 ± 0.0027 | 0.429 ± 0.058 | 0.335 ± 0.038 | 0.449 ± 0.02 | 0.316 ± 0.016 | 0.303 ± 0.034 | 0.446 ± 0.031 | 0.379 ± 0.013
SGWGGGTWVKMG | 0.537 ± 0.019 | 0.721 ± 0.046 | 0.662 ± 0.024 | 0.76 ± 0.011 | 0.113 ± 0.013 | 0.12 ± 0.013 | 0.191 ± 0.018 | 0.3093 ± 0.0025
SIQRKIRRMKEN | 0.559 ± 0.093 | 0.732 ± 0.046 | 0.699 ± 0.048 | 0.7 ± 0.014 | 0.355 ± 0.017 | 0.333 ± 0.054 | 0.566 ± 0.0026 | 0.4687 ± 0.0016
SIVDLFRLRSLS | 0.643 ± 0.022 | 0.722 ± 0.016 | 0.684 ± 0.008 | 0.7295 ± 0.0054 | 0.264 ± 0.032 | 0.298 ± 0.012 | 0.519 ± 0.0074 | 0.374 ± 0.12
SLALLFSFLLFL | 0.504 ± 0.041 | 0.404 ± 0.028 | 0.448 ± 0.021 | 0.536 ± 0.0096 | 0.605 ± 0.056 | 0.461 ± 0.015 | 0.54 ± 0.042 | 0.438 ± 0.013
SLFPHIFFFFFA | 0.43487 ± 0.00035 | 0.467 ± 0.015 | 0.386 ± 0.036 | 0.428 ± 0.0029 | 0.343 ± 0.015 | 0.295 ± 0.032 | 0.384 ± 0.0099 | 0.49 ± 0.013
SLICLSVGVLLR | 0.128 ± 0.024 | 0.181 ± 0.061 | 0.189 ± 0.029 | 0.337 ± 0.071 | 0.205 ± 0.003 | 0.188 ± 0.039 | 0.258 ± 0.021 | 0.292 ± 0.0045
SLSSSFQFSSPS | 0.701 ± 0.035 | 0.7506 ± 0.0045 | 0.69 ± 0.051 | 0.722 ± 0.026 | 0.6672 ± 0.00083 | 0.65 ± 0.032 | 0.7357 ± 0.0029 | 0.726 ± 0.094
SPIGIFCFILCR | 0.0729 ± 0.011 | 0.0462 ± 0.023 | 0.153 ± 0.027 | 0.211 ± 0.016 | 0.176 ± 0.019 | 0.147 ± 0.038 | 0.157 ± 0.013 | 0.187 ± 0.049
SPTQIPLWILAS | 0.258 ± 0.0095 | 0.394 ± 0.04 | 0.308 ± 0.04 | 0.4539 ± 0.0022 | 0.102 ± 0.0074 | 0.114 ± 0.014 | 0.12 ± 0.015 | 0.186 ± 0.015
SRGRVLRLLLLV | 0.303 ± 0.0055 | 0.428 ± 0.013 | 0.393 ± 0.025 | 0.524 ± 0.0093 | 0.0727 ± 0.011 | 0.0574 ± 0.026 | 0.0678 ± 0.018 | 0.124 ± 0.0028
SRRCGLFVFILF | 0.387 ± 0.042 | 0.378 ± 0.028 | 0.324 ± 0.041 | 0.49 ± 0.021 | 0.365 ± 0.008 | 0.277 ± 0.03 | 0.471 ± 0.006 | 0.392 ± 0.03
SRSFFRRLLFCF | 0.642 ± 0.033 | 0.7705 ± 0.0056 | 0.679 ± 0.022 | 0.8141 ± 0.0018 | 0.3352 ± 0.0008 | 0.352 ± 0.0083 | 0.4821 ± 0.0037 | 0.396 ± 0.016
SSAPPTLHTRPS | 0.642 ± 0.027 | 0.7092 ± 0.0049 | 0.662 ± 0.023 | 0.686 ± 0.012 | 0.664 ± 0.0071 | 0.6631 ± 0.0044 | 0.681 ± 0.0066 | 0.539 ± 0.059
SSRRVVLPLLVA | 0.336 ± 0.057 | 0.402 ± 0.0094 | 0.309 ± 0.032 | 0.481 ± 0.0058 | 0.123 ± 0.011 | 0.136 ± 0.033 | 0.131 ± 0.027 | 0.202 ± 0.027
